{"source": "paper PMC5207774", "about": "“Atomic structures of fibrillar segments of hIAPP suggest tightly mated β-sheets are important for cytotoxicity” (eLife, 2017)", "molecular_target": "the molecule itself", "experiment": "crystal structure; MicroED (electron diffraction in a cryo electron microscope, 200 kV) from 3D peptide crystals only a few hundred nanometers thick; self-association of the peptide in the crystal"}
{"protein": "SGNNFGAILSS (human islet amyloid polypeptide (hIAPP), residues 19-29, with the early onset familial mutation S20G; numbers count on: the mature protein (37-residue hormone); Forms 3D nanocrystals and fibrils; the number of chains in the assembly is open-ended; also called spine segment 19–29 S20G; source: synthetic peptide: GenScript, greater than 98% purity)", "note": "[hIAPP segment 19–29 S20G (19-SGNNFGAILSS-29)]", "values": [{"measurement": "binding result", "value": "binds"}]}
{"protein": "FLVHSSNNFGA (human islet amyloid polypeptide (hIAPP), residues 15-25, wild type; numbers count on: the mature protein (37-residue hormone); Forms 3D nanocrystals and fibrils (striated ribbons); also called spine segment 15–25 WT; source: synthetic peptide: GenScript, greater than 98% purity)", "note": "[hIAPP segment 15–25 WT (15-FLVHSSNNFGA-25)]", "values": [{"measurement": "binding result", "value": "binds"}]}
